Data reported in PMC8167854, “Transfer of stabilising mutations between different secondary active transporter families” (FEBS Open Bio, 2021).

B1: Arabidopsis thaliana boron transporter 1 (AtBOR1), wild-type (natural protein)
chain: not shown
notes: BOR1 borate transporter of Arabidopsis thaliana (SLC4 family), full-length wild type; Expressed from pDDGFP-2 with a TEV-cleavable C-terminal yEGFP His-tag; also called WT AtBOR1; AtBOR1 WT; source: S. cerevisiae FGY217, purified in DDM (His-Trap, TEV cleavage, reverse IMAC, Superdex 200); not shown: yEGFP, C-terminal, cleaved; His-tag, C-terminal, cleaved
B2: AtBOR1 M363F (natural protein)
chain: not shown
notes: BOR1 borate transporter of Arabidopsis thaliana with the point mutation M363F, made on the AtBOR1 WT gene; Expressed from pDDGFP-2 with a TEV-cleavable C-terminal yEGFP His-tag; tag removed with TEV protease before SEC; source: S. cerevisiae FGY217, purified in DDM (His-Trap, TEV cleavage, reverse IMAC, Superdex 200); not shown: yEGFP, C-terminal, cleaved; His-tag, C-terminal, cleaved
B3: AtBOR1 M363Y (natural protein)
chain: not shown
notes: BOR1 borate transporter of Arabidopsis thaliana with the point mutation M363Y, made on the AtBOR1 WT gene; Expressed from pDDGFP-2 with a TEV-cleavable C-terminal yEGFP His-tag; tag removed with TEV protease before SEC; source: S. cerevisiae FGY217, purified in DDM (His-Trap, TEV cleavage, reverse IMAC, Superdex 200); not shown: yEGFP, C-terminal, cleaved; His-tag, C-terminal, cleaved

Molecular target: the molecule itself
Assay: SDS/PAGE of SEC fractions, bands identified by mass spectrometry; protein purified in 0.03% DDM, eluted from Superdex 200 10/300 in 20 mM Tris/HCl pH 7.5, 150 mM NaCl; fractions on a 12% Tris-Glycine SDS/PAGE gel; monomer and dimer bands

Binding result, binds:
B1, B2, B3
